Test results published in IntAct's records for PubMed 22939626.

Molecular target: vira_shifl virA (UniProt Q7BU69)
Sequence (Q7BU69 whole entry): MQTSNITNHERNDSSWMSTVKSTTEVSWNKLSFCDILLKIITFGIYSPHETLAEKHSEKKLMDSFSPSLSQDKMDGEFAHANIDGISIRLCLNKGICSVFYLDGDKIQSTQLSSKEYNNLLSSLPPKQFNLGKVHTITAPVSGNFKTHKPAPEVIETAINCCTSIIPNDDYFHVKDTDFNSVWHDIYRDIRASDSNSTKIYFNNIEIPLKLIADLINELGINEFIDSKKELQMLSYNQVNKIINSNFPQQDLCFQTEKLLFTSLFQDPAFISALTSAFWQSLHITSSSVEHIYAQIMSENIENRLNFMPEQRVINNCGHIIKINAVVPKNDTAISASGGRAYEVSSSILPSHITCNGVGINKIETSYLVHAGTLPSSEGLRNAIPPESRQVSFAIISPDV

Chain of Ras-related protein Rab-1A (Homo sapiens), P62820 S25N (P62820 whole entry S25N): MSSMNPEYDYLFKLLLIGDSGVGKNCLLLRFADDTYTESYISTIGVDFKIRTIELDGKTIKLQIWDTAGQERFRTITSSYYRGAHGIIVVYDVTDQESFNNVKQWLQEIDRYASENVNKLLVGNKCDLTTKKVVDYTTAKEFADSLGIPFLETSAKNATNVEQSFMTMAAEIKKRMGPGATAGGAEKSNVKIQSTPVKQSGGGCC
Chain of Ras-related protein Rab-1A (Homo sapiens), P62820 Q70L (P62820 whole entry Q70L): as the sequence (P62820 whole entry S25N) above, with N25S, Q70L counted along it

Row | Substance | effect of a mutation on the interaction
1 | Ras-related protein Rab-1A (Homo sapiens), P62820 S25N | decreasing interaction strength
2 | Ras-related protein Rab-1A (Homo sapiens), P62820 Q70L | increasing interaction strength
